From patent US20090048324A1 (FOX CHASE CANCER CENTER, published 2009)
Where a chain is given by its changes, count along the chain named.

Assays:
human PBGS variant F12L = target: T1, human PBGS variant F12L (human, UniProt P13716 1-330); assay: coexpression, Q-Sepharose chromatography
T1 construct: Hexamer in the crystal structure (PDB 1PV8); tetramer/hexamer mix in sedimentation equilibrium; also called F12L hexamer
T1 chain: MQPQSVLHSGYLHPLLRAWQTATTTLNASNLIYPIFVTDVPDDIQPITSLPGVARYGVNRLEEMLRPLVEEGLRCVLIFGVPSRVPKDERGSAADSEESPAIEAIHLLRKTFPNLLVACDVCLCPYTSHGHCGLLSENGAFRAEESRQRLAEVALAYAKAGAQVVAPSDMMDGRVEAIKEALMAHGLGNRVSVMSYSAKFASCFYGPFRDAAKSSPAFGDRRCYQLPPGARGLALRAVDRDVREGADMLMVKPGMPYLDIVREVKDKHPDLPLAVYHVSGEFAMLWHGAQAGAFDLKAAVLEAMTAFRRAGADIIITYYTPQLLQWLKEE

[1] = target: the molecule itself; assay: purification and dialysis against magnesium
[2] = target: the molecule itself; assay: cell-based or functional assay

B1: wild type human porphobilinogen synthase (PBGS), parent construct N59/C162A (enzyme)
chain: T1 chain with L12F
notes: Homo-oligomer, predominantly an octamer; also called Wt; WT
- binding result (human PBGS variant F12L): binds

B2: Pseudomonas aeruginosa porphobilinogen synthase (enzyme)
chain: MSFTPANRAYPYTRLRRNRRDDFSRRLVRENVLTVDDLILPVFVLDGVNQRESIPSMPGVERLSIDQLLIEAEEWVALGIPALALFPVTPVEKKSLDAAEAYNPEGIAQRATRALRERFPELGIITDVALDPFTTHGQDGILDDDGYVLNDVSIDVLVRQALSHAEAGAQVVAPSDMMDGRIGAIREALESAGHTNVRIMAYSAKYASAYYGPFRDAVGSASNLGKGNKATYQMDPANSDEALHEVAADLAEGADMVMVKPGMPYLDIVRRVKDEFRAPTFVYQVSGEYAMHMGAIQNGWLAESVILESLTAFKRAGADGILTYFAKQAAEQLRRGR
notes: Purified as a dimer without magnesium and converted to the octamer by dialysis against magnesium; also called P. aeruginosa PBGS
- binding result [1]: binds

B3: pea (Pisum sativum) porphobilinogen synthase (enzyme, Pisum sativum (pea), UniProt P30124 69-398, looked up)
chain: SLPIQRRPRRNRRSPALRSAFQETTLSPANFVYPLFIHEGEEDTPIGAMPGCYRLGWRHGLLEEVAKARDVGVNSVVLFPKIPDALKTPTGDEAYNEDGLVPRSIRLLKDKYPDLIIYTDVALDPYSSDGHDGIVREDGVIMNDETVHQLCKQAVAQARAGADVVSPSDMMDGRVGAMRVALDAEGFQHVSIMSYTAKYASSFYGPFREALDSNPRFGDKKTYQMNPANYREALTEMREDESEGADILLVKPGLPYLDIIRLLRDNSPLPIAAYQVSGEYSMIKAGGALKMIDEEKVMMESLLCLRRAGADIILTYFALQAARTLCGEKR
- EC50 (read off the curve), specific activity against pea PBGS subunit concentration [2]: ~30 nM
